Target: T1, mouse TrkB.hFc (mouse)
T1 construct: also called mTrkB.hFc; mTrkB-hFc
Assay: blocking ELISA: constant mouse TrkB.hFc (REGN2277) pre-mixed with antibody, binding to plate-coated BDNF
Description: Experiments were carried out using the following procedure. Human BDNF was coated at a concentration of 0.5 μg/mL (for blocking mouse TrkB.hFc interaction) or 0.3 μg/mL (for blocking rat TrkB.mmh interaction) in PBS on 96-well microtiter plate and incubated overnight at 4° C. […] In a 96-well dilution plate, 850 pM mouse TrkB.hFc or rat TrkB.mmh was mixed with the three-fold serially diluted anti-mouse TrkB antibodies and control antibody. The final antibody concentrations ranged from 1.69 pM to 100 nM. The protein-antibody mix was incubated at room temperature (RT) for 1 hour. The pre-bound mix was then transferred in duplicates to microtiter plates coated with BDNF. […] Plate-bound mouse TrkB.hFc was detected with HRP-conjugated goat anti-human Fcγ fragment specific antibody (Jackson Immunoresearch) and rat TrkB.mmh was detected with HRP-conjugated anti-histidine antibody (Qiagen). […]
The absorbance at 450 nm for each well was recorded and plotted as a function of the concentration of antibody. Data was analyzed in GraphPad Prism software using a four-parameter logistic equation over an 11-point dose response curve and IC₅₀ values were calculated. […] Percent blockade at maximum concentration of the antibody tested was calculated as an indicator of the ability of the antibodies to block the binding of TrkB to BDNF on the plate relative to the baseline of the assay. […]

T1 sequence (chain, as listed by the source limits assumed): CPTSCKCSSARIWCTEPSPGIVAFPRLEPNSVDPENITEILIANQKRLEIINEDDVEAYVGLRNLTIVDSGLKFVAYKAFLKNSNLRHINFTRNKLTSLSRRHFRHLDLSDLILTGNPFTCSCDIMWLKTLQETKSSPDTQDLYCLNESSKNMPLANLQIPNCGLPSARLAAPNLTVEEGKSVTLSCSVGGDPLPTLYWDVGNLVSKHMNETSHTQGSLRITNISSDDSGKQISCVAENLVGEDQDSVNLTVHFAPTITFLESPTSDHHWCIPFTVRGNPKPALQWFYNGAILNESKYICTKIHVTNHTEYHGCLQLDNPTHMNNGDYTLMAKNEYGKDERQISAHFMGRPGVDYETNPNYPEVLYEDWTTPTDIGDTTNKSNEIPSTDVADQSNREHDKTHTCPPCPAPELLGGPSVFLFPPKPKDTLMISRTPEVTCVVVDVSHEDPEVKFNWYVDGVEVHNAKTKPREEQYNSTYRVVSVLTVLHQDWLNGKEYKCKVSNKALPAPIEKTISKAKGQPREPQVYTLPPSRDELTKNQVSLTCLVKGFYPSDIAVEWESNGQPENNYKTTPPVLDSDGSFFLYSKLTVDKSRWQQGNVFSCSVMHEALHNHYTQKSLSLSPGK

- IC50 (read off the curve): ~0.1 nM
B1: M2aM14173N (antibody, mouse IgG2a, kappa, V domains shown)
VH: NVSLVESGGGSVKPGGSLQLSCAASGFTFSSSAMSWIRQTPEMRLEWVATISDRGSYTYYPDSVEGRFTISRDNAKNILYLQMSHLMSEDTAMYYCARGKGEKAYYTAFFAYWGQGSLVTVSA
VL: DIQMTQSPASLSASVGETVTITCRASENIYSYLAWYQQKPGKSPHLLVHNAETLAEGVPSRFSGSGSGPQFSLKINSLQPGDSGTYYCQHHYSSPWTFGGGTKLEIKR
notes: Anti-mouse TrkB antibody from hybridoma, mouse IgG2a Fc; also called surrogate anti-mouse TrkB antibody

Reference: patent publication US20190161551A1 (Regeneron, published 2019)
